Earlier results, collected in paper PMC2375062.

Target: uPA (Homo sapiens) (UniProt P00749)

Kd: 50 nM
Substance: glu-plasminogen (from UniProt P00747)
